Results published in PMC8056151.

Target: AG-tagged DDB1 (DNA damage-binding protein 1) (human) (UniProt Q16531)
Test: Fluoppi

Chain of UniProt Q16531 (Q16531 whole entry): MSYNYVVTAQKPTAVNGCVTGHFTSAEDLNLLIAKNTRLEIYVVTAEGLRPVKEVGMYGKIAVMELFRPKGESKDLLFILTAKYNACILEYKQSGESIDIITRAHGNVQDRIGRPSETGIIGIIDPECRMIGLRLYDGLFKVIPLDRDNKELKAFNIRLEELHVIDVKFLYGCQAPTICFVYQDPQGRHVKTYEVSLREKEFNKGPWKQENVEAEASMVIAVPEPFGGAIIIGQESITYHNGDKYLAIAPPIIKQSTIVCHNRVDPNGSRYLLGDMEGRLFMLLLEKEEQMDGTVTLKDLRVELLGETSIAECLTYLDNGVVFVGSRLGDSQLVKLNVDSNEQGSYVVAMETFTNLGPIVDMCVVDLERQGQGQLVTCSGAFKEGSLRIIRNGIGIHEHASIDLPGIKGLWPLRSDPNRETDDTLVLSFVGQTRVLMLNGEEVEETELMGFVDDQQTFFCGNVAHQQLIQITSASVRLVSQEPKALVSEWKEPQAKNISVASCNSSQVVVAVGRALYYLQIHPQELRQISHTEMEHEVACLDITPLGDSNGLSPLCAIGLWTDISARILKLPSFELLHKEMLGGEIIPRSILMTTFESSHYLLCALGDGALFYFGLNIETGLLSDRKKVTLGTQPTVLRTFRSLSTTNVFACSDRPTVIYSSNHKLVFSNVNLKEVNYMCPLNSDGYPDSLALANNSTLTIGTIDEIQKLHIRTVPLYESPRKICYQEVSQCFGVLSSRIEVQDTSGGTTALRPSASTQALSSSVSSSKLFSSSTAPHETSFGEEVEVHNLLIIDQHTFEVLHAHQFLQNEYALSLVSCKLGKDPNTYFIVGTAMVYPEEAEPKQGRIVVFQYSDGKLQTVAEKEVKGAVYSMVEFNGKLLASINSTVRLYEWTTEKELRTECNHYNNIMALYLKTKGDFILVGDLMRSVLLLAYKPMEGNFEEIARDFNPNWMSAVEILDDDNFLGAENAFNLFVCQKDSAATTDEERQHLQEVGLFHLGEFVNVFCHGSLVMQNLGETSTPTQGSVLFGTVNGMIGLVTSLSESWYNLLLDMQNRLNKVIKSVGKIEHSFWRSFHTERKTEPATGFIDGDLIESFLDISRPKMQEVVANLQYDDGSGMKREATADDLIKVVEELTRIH

Q: With “Ash-tagged hepatitis B virus X protein (full-length HBx, wild type) (natural protein)” as the substance, how does the percent of fluorescent puncta left with NTZ read?
A: The percent of fluorescent puncta left with NTZ was 50%.
